Sequences and labels used below:
T1: human IL-18R1 and IL-18RAP on IL-18 Reporter HEK 293 Cells (human, UniProt Q13478 19-541; O95256 20-599)
T1 sequence (looked up) 1: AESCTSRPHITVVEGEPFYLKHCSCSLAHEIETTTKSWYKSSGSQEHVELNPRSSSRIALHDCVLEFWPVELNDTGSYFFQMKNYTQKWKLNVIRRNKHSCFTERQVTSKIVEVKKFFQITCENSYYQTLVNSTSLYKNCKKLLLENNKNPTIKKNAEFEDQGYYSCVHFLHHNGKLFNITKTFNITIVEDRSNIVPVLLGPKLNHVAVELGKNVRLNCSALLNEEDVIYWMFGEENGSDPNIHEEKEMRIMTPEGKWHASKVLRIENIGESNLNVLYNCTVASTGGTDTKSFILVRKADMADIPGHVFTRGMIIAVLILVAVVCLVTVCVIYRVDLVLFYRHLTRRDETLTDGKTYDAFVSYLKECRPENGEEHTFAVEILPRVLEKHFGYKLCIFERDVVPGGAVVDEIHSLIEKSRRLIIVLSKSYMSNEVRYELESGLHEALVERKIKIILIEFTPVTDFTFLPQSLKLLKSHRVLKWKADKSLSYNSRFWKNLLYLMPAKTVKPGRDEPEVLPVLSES
T1 sequence (looked up) 2: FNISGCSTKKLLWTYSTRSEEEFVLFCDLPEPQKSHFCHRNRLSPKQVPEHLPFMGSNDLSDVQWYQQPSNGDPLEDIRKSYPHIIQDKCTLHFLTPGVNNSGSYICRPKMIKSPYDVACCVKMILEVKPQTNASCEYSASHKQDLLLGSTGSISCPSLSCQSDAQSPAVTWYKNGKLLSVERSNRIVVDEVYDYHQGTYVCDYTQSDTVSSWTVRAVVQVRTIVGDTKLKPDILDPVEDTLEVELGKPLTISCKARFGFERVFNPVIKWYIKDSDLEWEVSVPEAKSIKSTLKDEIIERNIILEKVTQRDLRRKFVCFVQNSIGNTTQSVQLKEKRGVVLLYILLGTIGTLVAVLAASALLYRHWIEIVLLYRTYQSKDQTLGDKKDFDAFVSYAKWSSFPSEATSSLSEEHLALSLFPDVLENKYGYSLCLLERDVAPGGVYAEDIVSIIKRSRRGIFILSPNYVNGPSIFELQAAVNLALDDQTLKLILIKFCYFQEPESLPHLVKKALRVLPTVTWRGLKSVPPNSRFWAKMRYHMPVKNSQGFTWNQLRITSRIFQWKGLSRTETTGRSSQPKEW

B1: hzWio-02-01-Hm16 (bispecific antibody)
chain: EVQLVESGGGLVQPGGSLRLSCAASGTAYDNACMGWFRQAPGKEREGVASIHLRDRTHYADSVKGRFTISRDNSKNTLYLQMNSLRAEDTAVYYCASSNICNALNLQGNTYWGQGTLVTVSSGGGGSEVQLLESGGGLVQPGGSLRLSCAASGYTYGPYCMGWFRQAPGKEREGVAAVGGDARTWYGNSVKGRFTISRDNSKNTLYLQMNSLRAEDTAVYYCAADFDRTVCSDDIYDYTYRGQGTLVTVSSHHHHHH
B2: hzWio-02-01-Hm17 (bispecific antibody)
chain: EVQLVESGGGLVQPGGSLRLSCAASGTAYDNACMGWFRQAPGKEREGVASIHLRDRTYHADSVKGRFTISRDNSKNTLYLQMNSLRAEDTAVYYCASSNICNALNLQGNTYWGQGTLVTVSSGGGGSEVQLLESGGGLVQPGGSLRLSCAASGYTYGPYCMGWFRQAPGKEREGVAAVGGDARTWYGNSVKGRFTISRDNSKNTLYLQMNSLRAEDTAVYYCAADFDRTVCSDDIYDYTYRGQGTLVTVSSHHHHHH
B3: hzWio-02-01-Hm23 (bispecific antibody)
chain: EVQLVESGGGLVQPGGSLRLSCAASGTAYDNACMGWFRQAPGKEREGVASIHLRDRTYYADSVKHRFTISRDNSKNTLYLQMNSLRAEDTAVYYCASSNICNALNLQGNTYWGQGTLVTVSSGGGGSEVQLLESGGGLVQPGGSLRLSCAASGYTYGPYCMGWFRQAPGKEREGVAAVGGDARTWYGNSVKGRFTISRDNSKNTLYLQMNSLRAEDTAVYYCAADFDRTVCSDDIYDYTYRGQGTLVTVSSHHHHHH
B4: hzWio-02-01-Hm26 (bispecific antibody)
chain: EVQLVESGGGLVQPGGSLRLSCAASGTAYDNACMGWFRQAPGKEREGVASIHLRDRTYYADSVKGRFTISRDNSKNTLYLQMNSLRAEDTAVYYCASSNHCNALNLQGNTYWGQGTLVTVSSGGGGSEVQLLESGGGLVQPGGSLRLSCAASGYTYGPYCMGWFRQAPGKEREGVAAVGGDARTWYGNSVKGRFTISRDNSKNTLYLQMNSLRAEDTAVYYCAADFDRTVCSDDIYDYTYRGQGTLVTVSSHHHHHH
B5: hzWio-02-01-Hm25 (bispecific antibody)
chain: EVQLVESGGGLVQPGGSLRLSCAASGTAYDNACMGWFRQAPGKEREGVASIHLRDRTYYADSVKGRFTISRDNSKNTLYLQMNSLRAEDTAVYYCASSHICNALNLQGNTYWGQGTLVTVSSGGGGSEVQLLESGGGLVQPGGSLRLSCAASGYTYGPYCMGWFRQAPGKEREGVAAVGGDARTWYGNSVKGRFTISRDNSKNTLYLQMNSLRAEDTAVYYCAADFDRTVCSDDIYDYTYRGQGTLVTVSSHHHHHH
B6: hzWio-02-01-Hm24 (bispecific antibody)
chain: EVQLVESGGGLVQPGGSLRLSCAASGTAYDNACMGWFRQAPGKEREGVASIHLRDRTYYADSVKGRFTISRDNSKNTLYLQMNSLRAEDTAVYYCASHNICNALNLQGNTYWGQGTLVTVSSGGGGSEVQLLESGGGLVQPGGSLRLSCAASGYTYGPYCMGWFRQAPGKEREGVAAVGGDARTWYGNSVKGRFTISRDNSKNTLYLQMNSLRAEDTAVYYCAADFDRTVCSDDIYDYTYRGQGTLVTVSSHHHHHH
B7: hzWio-02-01-Hm28 (bispecific antibody)
chain: EVQLVESGGGLVQPGGSLRLSCAASGTAYDNACMGWFRQAPGKEREGVASIHLRDRTYYADSVKGRFTISRDNSKNTLYLQMNSLRAEDTAVYYCASSNICNHLNLQGNTYWGQGTLVTVSSGGGGSEVQLLESGGGLVQPGGSLRLSCAASGYTYGPYCMGWFRQAPGKEREGVAAVGGDARTWYGNSVKGRFTISRDNSKNTLYLQMNSLRAEDTAVYYCAADFDRTVCSDDIYDYTYRGQGTLVTVSSHHHHHH
B8: hzWio-02-01-Hm21 (bispecific antibody)
chain: EVQLVESGGGLVQPGGSLRLSCAASGTAYDNACMGWFRQAPGKEREGVASIHLRDRTYYADSHKGRFTISRDNSKNTLYLQMNSLRAEDTAVYYCASSNICNALNLQGNTYWGQGTLVTVSSGGGGSEVQLLESGGGLVQPGGSLRLSCAASGYTYGPYCMGWFRQAPGKEREGVAAVGGDARTWYGNSVKGRFTISRDNSKNTLYLQMNSLRAEDTAVYYCAADFDRTVCSDDIYDYTYRGQGTLVTVSSHHHHHH
B9: hzWio-02-01-Hm20 (bispecific antibody)
chain: EVQLVESGGGLVQPGGSLRLSCAASGTAYDNACMGWFRQAPGKEREGVASIHLRDRTYYADHVKGRFTISRDNSKNTLYLQMNSLRAEDTAVYYCASSNICNALNLQGNTYWGQGTLVTVSSGGGGSEVQLLESGGGLVQPGGSLRLSCAASGYTYGPYCMGWFRQAPGKEREGVAAVGGDARTWYGNSVKGRFTISRDNSKNTLYLQMNSLRAEDTAVYYCAADFDRTVCSDDIYDYTYRGQGTLVTVSSHHHHHH
B10: hzWio-02-01-Hm18 (bispecific antibody)
chain: EVQLVESGGGLVQPGGSLRLSCAASGTAYDNACMGWFRQAPGKEREGVASIHLRDRTYYHDSVKGRFTISRDNSKNTLYLQMNSLRAEDTAVYYCASSNICNALNLQGNTYWGQGTLVTVSSGGGGSEVQLLESGGGLVQPGGSLRLSCAASGYTYGPYCMGWFRQAPGKEREGVAAVGGDARTWYGNSVKGRFTISRDNSKNTLYLQMNSLRAEDTAVYYCAADFDRTVCSDDIYDYTYRGQGTLVTVSSHHHHHH
B11: hzWio-02-01-Hm19 (bispecific antibody)
chain: EVQLVESGGGLVQPGGSLRLSCAASGTAYDNACMGWFRQAPGKEREGVASIHLRDRTYYAHSVKGRFTISRDNSKNTLYLQMNSLRAEDTAVYYCASSNICNALNLQGNTYWGQGTLVTVSSGGGGSEVQLLESGGGLVQPGGSLRLSCAASGYTYGPYCMGWFRQAPGKEREGVAAVGGDARTWYGNSVKGRFTISRDNSKNTLYLQMNSLRAEDTAVYYCAADFDRTVCSDDIYDYTYRGQGTLVTVSSHHHHHH
B12: hzWio-02-01-Hm27 (bispecific antibody)
chain: EVQLVESGGGLVQPGGSLRLSCAASGTAYDNACMGWFRQAPGKEREGVASIHLRDRTYYADSVKGRFTISRDNSKNTLYLQMNSLRAEDTAVYYCASSNICHALNLQGNTYWGQGTLVTVSSGGGGSEVQLLESGGGLVQPGGSLRLSCAASGYTYGPYCMGWFRQAPGKEREGVAAVGGDARTWYGNSVKGRFTISRDNSKNTLYLQMNSLRAEDTAVYYCAADFDRTVCSDDIYDYTYRGQGTLVTVSSHHHHHH
B13: hzWio-02-01-Hm22 (bispecific antibody)
chain: EVQLVESGGGLVQPGGSLRLSCAASGTAYDNACMGWFRQAPGKEREGVASIHLRDRTYYADSVHGRFTISRDNSKNTLYLQMNSLRAEDTAVYYCASSNICNALNLQGNTYWGQGTLVTVSSGGGGSEVQLLESGGGLVQPGGSLRLSCAASGYTYGPYCMGWFRQAPGKEREGVAAVGGDARTWYGNSVKGRFTISRDNSKNTLYLQMNSLRAEDTAVYYCAADFDRTVCSDDIYDYTYRGQGTLVTVSSHHHHHH

The assay has as its target T1, human IL-18R1 and IL-18RAP on IL-18 …. As to the kind of experiment: cell-based or functional assay.
For orientation: EC50 means the concentration giving half of the maximal effect. A lower EC50 goes with a more potent agent. B1 yielded an EC50 of 1.15 ng/mL and a Top530nm of 1.11.
The matching figures for B2: 1.47 ng/mL and 1.
The matching figures for B3: 0.238 ng/mL and 0.794.
Take B4: the EC50 was found to be 0.301 ng/mL and the Top530nm amounted to 0.764.
With B5, it took 0.04 ng/mL to reach a half-maximal effect (EC50) and the Top530nm stood at 0.738.
As to B6, the response was half-maximal at 1.97 ng/mL (EC50) and the Top530nm stood at 0.774.
As for B7, the midpoint of the response, the EC50, lay at 0.42 ng/mL and the Top530nm was found to be 0.821.
The matching figures for B8: 2.12 ng/mL and 1.12.
B9 registered an EC50 of 0.582 ng/mL and a Top530nm of 2.75.
B10: a half-maximal effect (EC50) was put at 0.696 ng/mL and the Top530nm was determined as 1.07.
Regarding B11, the EC50 was 0.84 ng/mL and the Top530nm worked out at 0.738.
In the case of B12, the EC50 was determined as 0.433 ng/mL and the Top530nm came to 0.773.
For B13 the same measures were 0.182 ng/mL and 0.773.

(Values after patent EP4711384A1 (WIO Bioscience Co., Ltd., dated 2026).)
